For assay [1], the target named is human B7-H3 on B7-H3+ cells (human) (UniProt Q5ZPR3). In words: FACS, HUVEC cells (human B7-H3-expressing). (In general: Flow cytometry measures light scatter and fluorescence of single cells or particles in a stream.)
Assay [2] shares this target. In words: FACS, SK-OV-3 cells (B7-H3+ tumor cells).
Assay [3] shares this target. The experiment in a line: FACS, human prostate smooth muscle cells (B7-H3+ normal cells).
The target is the same in assay [4]. In words: FACS, MCF-7 cells (B7-H3+ tumor cells).
Assay [5] has the same target. The experiment in a line: FACS, HepG2 cells (B7-H3+ tumor cells).
Assay [6] has the same target. The experiment in a line: FACS, human dermal fibroblasts (B7-H3+ normal cells).
Assay [7] shares this target. The experiment in a line: FACS, mature human dendritic cells derived from PBMC (B7-H3+ normal cells).
For assay [8] the target is unchanged. The experiment in a line: FACS, NCI-H520 cells (B7-H3+ tumor cells).
Assay [9] shares this target. The experiment in a line: FACS, NCI-H520 cells (B7-H3+ tumor cells) [Continued) C].
For assay [10] the target is unchanged. In words: FACS, A549 cells (B7-H3+ tumor cells).
For assay [11] the target is unchanged. The experiment in a line: FACS, NCI-H520 cells (B7-H3+ tumor cells) [Continued) D].

Sequence of human B7-H3 on B7-H3+ cells (human) (Q5ZPR3 29-534): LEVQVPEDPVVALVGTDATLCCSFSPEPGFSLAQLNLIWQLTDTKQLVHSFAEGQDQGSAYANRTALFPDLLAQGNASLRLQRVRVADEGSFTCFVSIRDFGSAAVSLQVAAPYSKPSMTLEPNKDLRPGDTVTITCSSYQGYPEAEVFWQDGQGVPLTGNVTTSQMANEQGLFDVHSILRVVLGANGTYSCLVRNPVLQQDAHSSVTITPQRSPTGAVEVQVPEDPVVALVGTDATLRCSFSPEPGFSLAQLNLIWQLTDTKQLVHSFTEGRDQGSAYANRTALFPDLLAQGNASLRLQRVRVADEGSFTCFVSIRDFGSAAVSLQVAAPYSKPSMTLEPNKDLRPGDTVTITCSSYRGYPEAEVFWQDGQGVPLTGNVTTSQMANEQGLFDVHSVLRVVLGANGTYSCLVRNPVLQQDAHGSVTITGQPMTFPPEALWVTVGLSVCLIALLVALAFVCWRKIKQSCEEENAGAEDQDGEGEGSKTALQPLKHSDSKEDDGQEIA

B1: 6B5 (antibody, human IgG1, kappa, V domains shown)
VH: QVQLVESGPGLVKPSQTLSLTCTVSDGSISSGGYYWSWIRQHPGKGLEWIGYIYYSGGTYYSPSLKSRVTISVDTSKNQFSLKLTSVTAADTAVYYCARRAGYSSSFDSWGQGILVTVSS
VL: EIVLTQSPLSLPVTPGEPASISCRSSQSLLYSNGYTYLDWYLQKPGQSPQFLIYLGFNRASGVPDRFSGSGSGTDFTLKISRVEAEDVGVYYCMQGLQTPYTFGQGTKLEIKR
The EC50 (read off the curve) is the midpoint of the concentration-response curve. Read a low EC50 (read off the curve) as an effect from little substance. For B1, the EC50 (read off the curve) was found to be 0.4 µg/mL in assay [1]; 0.7 µg/mL in assay [2]; 0.3 µg/mL in assay [3]; 0.4 µg/mL in assay [4]; 0.6 µg/mL in assay [5]; 0.4 µg/mL in assay [6]. In addition, the EC50 (read off the curve) in [7] is 1 µg/mL; in [8], 0.3 µg/mL; in [9], 0.1 µg/mL; in assay [10], 2 µg/mL.

B2: 10D7 (antibody, human IgG1, kappa, V domains shown)
VH: QVQLVQSGPGLVKPSETLSLTCTVSGGSISRSSYYWGWIRQPPGKGLEWIGNIFYAGSTYYNPSLKSRVTISVDTSKNQFSLKLSSVTAADTAVYYCARRITGTTGWFDPWGQGTLVTVSS
VL: DIQLTQSPSSLSASVGDRVTITCRASQGIRNDLGWYQQKPGKAPKLLIYAASTLQSGVPSRFSGSGSGTDFTLTISSLQPEDFATYYCLQDYNYPRTFGQGTKVEIKR
In the case of B2, the EC50 (read off the curve) in [1] stood at 0.05 µg/mL; in assay [2], 0.7 µg/mL; in assay [5], 0.4 µg/mL; in assay [7], 0.06 µg/mL; in assay [11] it was 0.03 µg/mL; in [8] it was 0.3 µg/mL.

B3: Enoblituzumab (antibody, human IgG1, kappa, V domains shown)
VH: EVQLVESGGGLVQPGGSLRLSCAASGFTFSSFGMHWVRQAPGKGLEWVAYISSDSSAIYYADTVKGRFTISRDNAKNSLYLQMNSLRDEDTAVYYCGRGRENIYYGSRLDYWGQGTTVTVSS
VL: DIQLTQSPSFLSASVGDRVTITCKASQNVDTNVAWYQQKPGKAPKALIYSASYRYSGVPSRFSGSGSGTDFTLTISSLQPEDFATYYCQQYNNYPFTFGQGTKLEIKR
Take B3: the EC50 (read off the curve) was found to be 0.1 µg/mL in assay [3], 0.2 µg/mL in assay [6], 0.3 µg/mL in assay [7] and 0.3 µg/mL in [8].

B4: 10D7-Mut (antibody, human IgG1, kappa)
heavy: QVQLVQSGPGLVKPSETLSLTCTVSGGSISRSSYYWGWIRQPPGKGLEWIGNIFYAGSTYYNPSLKSRVTISVDTSKNQFSLKLSSVTAADTAVYYCARRITGTTGWFDPWGQGTLVTVSSASTKGPSVFPLAPSSKSTSGGTAALGCLVKDYFPEPVTVSWNSGALTSGVHTFPAVLQSSGLYSLSSVVTVPSSSLGTQTYICNVNHKPSNTKVDKRVEPKSCDKTHTCPPCPAPELVGGPSVFLLPPKPKDTLMISRTPEVTCVVVDVSHEDPEVKFNWYVDGVEVHNAKTKPPEEQYNSTLRVVSVLTVLHQDWLNGKEYKCKVSNKALPAPIEKTISKAKGQPREPQVYTLPPSREEMTKNQVSLTCLVKGFYPSDIAVEWESNGQPENNYKTTPLVLDSDGSFFLYSKLTVDKSRWQQGNVFSCSVMHEALHNHYTQKSLSLSPGK
light: DIQLTQSPSSLSASVGDRVTITCRASQGIRNDLGWYQQKPGKAPKLLIYAASTLQSGVPSRFSGSGSGTDFTLTISSLQPEDFATYYCLQDYNYPRTFGQGTKVEIKRTVAAPSVFIFPPSDEQLKSGTASVVCLLNNFYPREAKVQWKVDNALQSGNSQESVTEQDSKDSTYSLSSTLTLSKADYEKHKVYACEVTHQGLSSPVTKSFNRGEC
On to B4, for which the EC50 (read off the curve) in assay [1] amounted to 0.05 µg/mL; in [11], 0.03 µg/mL.

B5: 6B5-Mut (antibody, human IgG1, kappa)
heavy: QVQLVESGPGLVKPSQTLSLTCTVSDGSISSGGYYWSWIRQHPGKGLEWIGYIYYSGGTYYSPSLKSRVTISVDTSKNQFSLKLTSVTAADTAVYYCARRAGYSSSFDSWGQGILVTVSSASTKGPSVFPLAPSSKSTSGGTAALGCLVKDYFPEPVTVSWNSGALTSGVHTFPAVLQSSGLYSLSSVVTVPSSSLGTQTYICNVNHKPSNTKVDKRVEPKSCDKTHTCPPCPAPELVGGPSVFLLPPKPKDTLMISRTPEVTCVVVDVSHEDPEVKFNWYVDGVEVHNAKTKPPEEQYNSTLRVVSVLTVLHQDWLNGKEYKCKVSNKALPAPIEKTISKAKGQPREPQVYTLPPSREEMTKNQVSLTCLVKGFYPSDIAVEWESNGQPENNYKTTPLVLDSDGSFFLYSKLTVDKSRWQQGNVFSCSVMHEALHNHYTQKSLSLSPGK
light: EIVLTQSPLSLPVTPGEPASISCRSSQSLLYSNGYTYLDWYLQKPGQSPQFLIYLGFNRASGVPDRFSGSGSGTDFTLKISRVEAEDVGVYYCMQGLQTPYTFGQGTKLEIKRTVAAPSVFIFPPSDEQLKSGTASVVCLLNNFYPREAKVQWKVDNALQSGNSQESVTEQDSKDSTYSLSSTLTLSKADYEKHKVYACEVTHQGLSSPVTKSFNRGEC
Take B5: the EC50 (read off the curve) was 0.4 µg/mL in assay [1] and 0.2 µg/mL in [9].

Source of the values: patent US20260125477A1.
